Data: paper PMC9482650, “Quantitative fragmentomics allow affinity mapping of interactomes” (Nature Communications, 2022)

B1: TNRC6B, Q9UPQ9 (peptide)
chain: DLLGGGSDSI
B2: ADRA1D, P25100 (peptide)
chain: DYSNLRETDI

Molecular target: AHNAK1, Q09666
Assay: holdup assay
Design: key: below the threshold = too weak to quantify, mostly under pKd 3.1 to 4
Conditions: plain residues with an end cap or a label only (N-terminal biotin on a linker: ado-ado)

Sequence of AHNAK1, Q09666 (Q09666 4-100): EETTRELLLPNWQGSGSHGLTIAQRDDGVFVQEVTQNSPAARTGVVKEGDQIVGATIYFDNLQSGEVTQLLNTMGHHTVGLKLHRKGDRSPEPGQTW

Binder	pKd
B1	below the threshold
B2	below the threshold

Molecular target: T1, APBA2_1, Q99767
T1 sequence (Q99767 563-664, limits assumed, looked up): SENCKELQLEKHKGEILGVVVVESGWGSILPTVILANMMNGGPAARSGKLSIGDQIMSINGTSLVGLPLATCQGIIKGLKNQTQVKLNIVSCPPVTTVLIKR
Assay: holdup assay
Design: key: below the threshold = too weak to quantify, mostly under pKd 3.1 to 4
Conditions: plain residues with an end cap or a label only (N-terminal biotin on a linker: ado-ado)

Binder	pKd
B1	below the threshold
B2	below the threshold

Molecular target: T2, APBA2_2, Q99767
T2 sequence (Q99767 654-744, limits assumed, looked up): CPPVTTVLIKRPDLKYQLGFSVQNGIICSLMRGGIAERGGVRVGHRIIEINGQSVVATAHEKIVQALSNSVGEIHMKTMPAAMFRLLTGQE
Assay: holdup assay
Design: key: below the threshold = too weak to quantify, mostly under pKd 3.1 to 4
Conditions: plain residues with an end cap or a label only (N-terminal biotin on a linker: ado-ado)

Binder	pKd
B1	below the threshold
B2	below the threshold

Molecular target: ARHGEF12, Q9NZN5-2
Assay: holdup assay
Design: key: below the threshold = too weak to quantify, mostly under pKd 3.1 to 4
Conditions: plain residues with an end cap or a label only (N-terminal biotin on a linker: ado-ado)

Sequence of ARHGEF12, Q9NZN5-2 (Q9NZN5 other isoform, or with tags, fused parts or gaps): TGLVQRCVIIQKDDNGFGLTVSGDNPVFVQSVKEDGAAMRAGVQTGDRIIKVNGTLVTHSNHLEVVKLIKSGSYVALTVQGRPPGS

Binder	pKd
B1	3.71
B2	4.03

Molecular target: T3, CARD11, Q9BXL7
T3 sequence (Q9BXL7 662-765, limits assumed, looked up): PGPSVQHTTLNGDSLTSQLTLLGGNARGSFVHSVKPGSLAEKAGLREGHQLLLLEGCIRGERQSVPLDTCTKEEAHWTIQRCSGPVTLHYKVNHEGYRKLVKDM
Assay: holdup assay
Design: key: below the threshold = too weak to quantify, mostly under pKd 3.1 to 4
Conditions: plain residues with an end cap or a label only (N-terminal biotin on a linker: ado-ado)

Binder	pKd
B1	below the threshold
B2	below the threshold

Molecular target: T4, DVL3, Q92997
T4 sequence (Q92997 244-331, limits assumed, looked up): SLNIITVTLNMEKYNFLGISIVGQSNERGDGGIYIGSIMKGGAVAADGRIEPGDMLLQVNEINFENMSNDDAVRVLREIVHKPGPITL
Assay: holdup assay
Design: key: below the threshold = too weak to quantify, mostly under pKd 3.1 to 4
Conditions: plain residues with an end cap or a label only (N-terminal biotin on a linker: ado-ado)

Binder	pKd
B1	below the threshold
B2	below the threshold

Molecular target: T5, FRMPD1, Q5SYB0
T5 sequence (Q5SYB0 52-145, limits assumed, looked up): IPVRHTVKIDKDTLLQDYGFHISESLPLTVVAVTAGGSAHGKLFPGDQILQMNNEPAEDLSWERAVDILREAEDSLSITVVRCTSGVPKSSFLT
Assay: holdup assay
Design: key: below the threshold = too weak to quantify, mostly under pKd 3.1 to 4
Conditions: plain residues with an end cap or a label only (N-terminal biotin on a linker: ado-ado)

Binder	pKd
B1	below the threshold
B2	below the threshold

Molecular target: T6, GRIP1_7, Q9Y3R0
T6 sequence (Q9Y3R0 999-1096, limits assumed, looked up): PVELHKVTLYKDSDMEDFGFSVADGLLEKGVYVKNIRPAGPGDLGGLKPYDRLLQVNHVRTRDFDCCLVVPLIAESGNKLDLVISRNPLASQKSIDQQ
Assay: holdup assay
Design: key: below the threshold = too weak to quantify, mostly under pKd 3.1 to 4
Conditions: plain residues with an end cap or a label only (N-terminal biotin on a linker: ado-ado)

Binder	pKd
B1	below the threshold
B2	below the threshold

Molecular target: GRIP2_3, Q9C0E4
Assay: holdup assay
Design: key: below the threshold = too weak to quantify, mostly under pKd 3.1 to 4
Conditions: plain residues with an end cap or a label only (N-terminal biotin on a linker: ado-ado)

Sequence of GRIP2_3, Q9C0E4 (Q9C0E4 238-339): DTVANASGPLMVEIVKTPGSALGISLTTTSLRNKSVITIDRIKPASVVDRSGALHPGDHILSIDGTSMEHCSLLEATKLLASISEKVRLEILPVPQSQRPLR

Binder	pKd
B1	below the threshold
B2	below the threshold

Molecular target: T7, HTRA4, P83105
T7 sequence (P83105 378-476, limits assumed, looked up): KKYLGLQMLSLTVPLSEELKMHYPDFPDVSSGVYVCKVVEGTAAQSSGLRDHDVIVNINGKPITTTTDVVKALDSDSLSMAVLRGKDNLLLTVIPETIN
Assay: holdup assay
Design: key: below the threshold = too weak to quantify, mostly under pKd 3.1 to 4
Conditions: plain residues with an end cap or a label only (N-terminal biotin on a linker: ado-ado)

Binder	pKd
B1	below the threshold
B2	3.75

Molecular target: Inadl_3, Q8NI35
Assay: holdup assay
Design: key: below the threshold = too weak to quantify, mostly under pKd 3.1 to 4
Conditions: plain residues with an end cap or a label only (N-terminal biotin on a linker: ado-ado)

Sequence of Inadl_3, Q8NI35 (Q8NI35 359-469): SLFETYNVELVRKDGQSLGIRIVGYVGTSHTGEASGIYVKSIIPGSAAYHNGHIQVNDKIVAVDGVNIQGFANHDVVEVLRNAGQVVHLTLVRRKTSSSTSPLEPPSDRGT

Binder	pKd
B1	below the threshold
B2	3.84

Molecular target: LIMK2, P53671
Assay: holdup assay
Design: key: below the threshold = too weak to quantify, mostly under pKd 3.1 to 4
Conditions: plain residues with an end cap or a label only (N-terminal biotin on a linker: ado-ado)

Sequence of LIMK2, P53671 (P53671 143-248): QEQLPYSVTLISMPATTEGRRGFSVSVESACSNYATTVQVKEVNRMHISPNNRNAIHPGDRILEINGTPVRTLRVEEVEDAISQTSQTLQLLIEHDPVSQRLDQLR

Binder	pKd
B1	below the threshold
B2	below the threshold

Molecular target: T8, LNX2_2, Q8N448
T8 sequence (Q8N448 334-432, limits assumed, looked up): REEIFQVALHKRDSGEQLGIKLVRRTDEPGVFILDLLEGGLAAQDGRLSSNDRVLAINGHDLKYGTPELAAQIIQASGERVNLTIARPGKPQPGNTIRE
Assay: holdup assay
Design: key: below the threshold = too weak to quantify, mostly under pKd 3.1 to 4
Conditions: plain residues with an end cap or a label only (N-terminal biotin on a linker: ado-ado)

Binder	pKd
B1	below the threshold
B2	below the threshold

Molecular target: MAST2, Q6P0Q8
Assay: holdup assay
Design: key: below the threshold = too weak to quantify, mostly under pKd 3.1 to 4
Conditions: plain residues with an end cap or a label only (N-terminal biotin on a linker: ado-ado)

Sequence of MAST2, Q6P0Q8 (Q6P0Q8 1099-1202): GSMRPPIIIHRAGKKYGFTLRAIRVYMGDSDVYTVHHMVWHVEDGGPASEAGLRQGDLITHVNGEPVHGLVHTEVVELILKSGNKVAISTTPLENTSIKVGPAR

Binder	pKd
B1	below the threshold
B2	5.22

Molecular target: T9, MPDZ_12, O75970
T9 sequence (O75970 1857-1958, limits assumed, looked up): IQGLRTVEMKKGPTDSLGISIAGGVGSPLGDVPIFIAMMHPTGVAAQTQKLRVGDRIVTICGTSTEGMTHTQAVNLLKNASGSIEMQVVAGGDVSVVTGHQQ
Assay: holdup assay
Design: key: below the threshold = too weak to quantify, mostly under pKd 3.1 to 4
Conditions: plain residues with an end cap or a label only (N-terminal biotin on a linker: ado-ado)

Binder	pKd
B1	3.53
B2	below the threshold

Molecular target: T10, MPP2, Q14168
T10 sequence (Q14168 180-250, limits assumed, looked up): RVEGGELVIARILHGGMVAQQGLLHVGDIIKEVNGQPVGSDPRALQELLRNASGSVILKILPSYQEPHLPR
Assay: holdup assay
Design: key: below the threshold = too weak to quantify, mostly under pKd 3.1 to 4
Conditions: plain residues with an end cap or a label only (N-terminal biotin on a linker: ado-ado)

Binder	pKd
B1	below the threshold
B2	below the threshold

Molecular target: T11, MPP7, Q5T2T1
T11 sequence (Q5T2T1 134-230, limits assumed, looked up): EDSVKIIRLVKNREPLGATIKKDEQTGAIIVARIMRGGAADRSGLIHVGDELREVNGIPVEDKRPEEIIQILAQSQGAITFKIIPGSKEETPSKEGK
Assay: holdup assay
Design: key: below the threshold = too weak to quantify, mostly under pKd 3.1 to 4
Conditions: plain residues with an end cap or a label only (N-terminal biotin on a linker: ado-ado)

Binder	pKd
B1	below the threshold
B2	below the threshold

Molecular target: T12, NHERF3_3, Q5T2W1
T12 sequence (Q5T2W1 238-333, limits assumed, looked up): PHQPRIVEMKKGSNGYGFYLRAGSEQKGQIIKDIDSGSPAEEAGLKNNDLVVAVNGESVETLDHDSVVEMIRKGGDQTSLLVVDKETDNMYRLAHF
Assay: holdup assay
Design: key: below the threshold = too weak to quantify, mostly under pKd 3.1 to 4
Conditions: plain residues with an end cap or a label only (N-terminal biotin on a linker: ado-ado)

Binder	pKd
B1	below the threshold
B2	below the threshold

Molecular target: T13, PDZD7_3, Q9H5P4
T13 sequence (Q9H5P4 857-944, limits assumed, looked up): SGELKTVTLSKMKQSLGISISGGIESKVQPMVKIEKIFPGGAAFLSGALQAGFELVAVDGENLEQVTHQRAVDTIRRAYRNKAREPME
Assay: holdup assay
Design: key: below the threshold = too weak to quantify, mostly under pKd 3.1 to 4
Conditions: plain residues with an end cap or a label only (N-terminal biotin on a linker: ado-ado)

Binder	pKd
B1	below the threshold
B2	4.97

Molecular target: SCRIB_1, Q14160
Assay: holdup assay
Design: key: below the threshold = too weak to quantify, mostly under pKd 3.1 to 4
Conditions: plain residues with an end cap or a label only (N-terminal biotin on a linker: ado-ado)

Sequence of SCRIB_1, Q14160 (Q14160 718-814): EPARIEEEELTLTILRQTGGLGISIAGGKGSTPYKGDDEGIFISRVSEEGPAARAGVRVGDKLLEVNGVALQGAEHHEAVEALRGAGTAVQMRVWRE

Binder	pKd
B1	below the threshold
B2	4.95

Molecular target: T14, SNTG1, Q9NSN8
T14 sequence (Q9NSN8 52-150, limits assumed, looked up): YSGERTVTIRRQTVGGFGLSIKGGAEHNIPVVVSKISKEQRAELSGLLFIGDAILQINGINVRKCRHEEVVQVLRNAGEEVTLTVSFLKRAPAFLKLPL
Assay: holdup assay
Design: key: below the threshold = too weak to quantify, mostly under pKd 3.1 to 4
Conditions: plain residues with an end cap or a label only (N-terminal biotin on a linker: ado-ado)

Binder	pKd
B1	below the threshold
B2	5.55

Molecular target: T15, TIAM2, Q8IVF5
T15 sequence (Q8IVF5 885-986, limits assumed, looked up): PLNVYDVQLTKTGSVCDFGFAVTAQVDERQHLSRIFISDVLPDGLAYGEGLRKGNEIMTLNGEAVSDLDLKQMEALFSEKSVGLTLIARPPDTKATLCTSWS
Assay: holdup assay
Design: key: below the threshold = too weak to quantify, mostly under pKd 3.1 to 4
Conditions: plain residues with an end cap or a label only (N-terminal biotin on a linker: ado-ado)

Binder	pKd
B1	3.97
B2	below the threshold

Molecular target: TJP1_2, Q07157
Assay: holdup assay
Design: key: below the threshold = too weak to quantify, mostly under pKd 3.1 to 4
Conditions: plain residues with an end cap or a label only (N-terminal biotin on a linker: ado-ado)

Sequence of TJP1_2, Q07157 (Q07157 181-274): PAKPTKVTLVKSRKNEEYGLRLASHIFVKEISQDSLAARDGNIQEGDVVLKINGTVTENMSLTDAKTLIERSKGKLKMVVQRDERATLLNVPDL

Binder	pKd
B1	3.62
B2	below the threshold
